Test results as given in the supplement of paper PMC9170038.

System: MS2 coat protein
Experiment: apparent KD of MS2 coat protein; designed switch direction (-1 OFF switch, 1 ON switch): -1; higher = weaker reporter binding
In short: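 Each step of the titration lasted 0.8–1.5 h at the lowest concentration and 10–20 min at the highest. The protein, SNAP-549-labelled MS2 coat protein, went from 0.7 or 1.5 nM doubling to 3 µM over RNA switches transcribed on Illumina chips by stalled E. coli RNA polymerase. Normalised cluster fluorescence was curve-fitted, and the per-design median over clusters is given as apparent KD.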

[1] = input ligand: microRNA oligo, concentration not stated
[2] = Eterna round: R95, input ligand: FMN 200 uM
[3] = Eterna round: R95, input ligand: microRNA oligo, concentration not stated
[4] = Eterna round: R95, input ligand: none

| Sequence | apparent KD of MS2 coat protein (input ligand: FMN 200 uM) | apparent KD of MS2 coat protein (input ligand: none) | apparent KD of MS2 coat protein [1] | apparent KD of MS2 coat protein [2] | apparent KD of MS2 coat protein [3] | apparent KD of MS2 coat protein [4] |
| --- | --- | --- | --- | --- | --- | --- |
| UGUGUACGAGGAUAUAGAUGGAAUGACAUGAGGAUCACCCAUGUGAUCGAUCUAUUGGGUUUAGAAGGUGUAUAUA [JR_Ex5_Sub047] (Eterna round: R97, puzzle: Exclusion 5) | 27.7 nM | 34.4 nM |  |  |  |  |
| AUUAAACAUGUAGGAUAUGCGUGGCGAAGCUAUGCAGAAGGACAUGAGGAUCACCCAUGUUUUAGCGUCUGCGUACAGAUGCAA [JL ENG1 1.38] (Eterna round: R96, puzzle: Exclusion NG 1) | 218 nM | 30.3 nM | 17.8 nM |  |  |  |
| CACGAACAUGAGGAUCACCCAUGUAAGGAUAUGGCCAACGACUUAAACUAAAGGUUGGCCAGAAGGUGCGGGUG [Eternabot (L2) Solution 61] (Eterna round: R97, puzzle: Exclusion 1) | 52.5 nM | 286 nM |  |  |  |  |
| AGAUGUAGAUACCGAUCCUACAUGAGGAUCACCCAUGUAGCUAGACGUGCGCGCGGCGCUCGUCAGACUACCAGUAG [salish99_TOv1_r3_093] (puzzle: Sensor v3, turn-off variant 1) |  |  |  | 328 nM | 248 nM | 326 nM |
| CCUGCACAUGAGGAUCACCCAUGUUAGGAUAUCUCGCCGUCGGCUUGCCGACGGUAUUAGAGAAGGGACAAGGG [JL Tixe mod 3] (puzzle: Exclusion 1) |  |  |  |  | 39.5 nM |  |
| ACCGUGAGGGUGAGGAUAUUCUGAGGGACGCCCUGGAAGAAGGUACAUGAGGAUCACCCAUGUGGCCUCAGACU [Eternabot (L2) Solution 99] (Eterna round: R97, puzzle: Brourd's mod of Exclusion 4) | 35.8 nM | 32.4 nM |  |  |  |  |
| AGUGUGUUAGGAUAUCGGAUAUGCUGGAGGAGGUGGAUUUACGAGAAGGAACAUGAGGAUCACCCAUGUAGGAG [JR_Exclu4_Sub048] (puzzle: Exclusion 4) |  |  |  |  | 36.2 nM |  |
| AACCAGCGAGGAUAUGCUUGCGCGUGUUCUAGUUGAAAUCGACUUGAGGAUCACCCAAGUAGAAGGCGCAGCCG [EX2 #48] (Eterna round: R97, puzzle: Exclusion 2) | 83.9 nM | 43.9 nM |  |  |  |  |
| GCGCCAUCGUGAGAUGGCGUACCGACAUGAGGAUCACCCAUGUAGGAUAUCGAUUGCUUUGCAGUCGAGAAGGGCAUGAUAAGU [JL ENG3 3.77] (Eterna round: R96, puzzle: Exclusion NG 3) | 20.9 nM | 21.4 nM | 13.4 nM |  |  |  |
| ACGAUGUUUGGAGGAUAUACAUGAGGAUCACCCAUGUGCGACCGAGUCCGCACUUCACCUCAGUGGUAGAAGGCCGAACAUCGA [Eternabot solution 12] (Eterna round: R96, puzzle: Exclusion NG 2) | 97.9 nM | 255 nM | 545 nM |  |  |  |
| AUUGUAUAGGAAGGAUAUAGAAUAUUAUUUUAACAUGAGGAUCACCCAUGUAACCUUAUGUGUAGCUAGAAGGUCCAUUUGUUA [Title] (Eterna round: R96, puzzle: Exclusion NG 2) |  |  | 228 nM |  |  |  |
| CCUAAAUCCUAGGAUAUGCUAGACGAAAGUCUAGCAGAAGGAGGAACAUGAGGAUCACCCAUGUGUCCUAUAGG [Mat - Exclusion 6 - Eli Mod - D31] (Eterna round: R97, puzzle: Exclusion 6) | 20.6 nM | 16.5 nM |  |  |  |  |
| CCCAUAUUGGAAGGAUAUUACCACAUGAGGAUCACCCAUGUGGUUUAAGGCUUACAACGACGUGGUAAGAAGGUCCAUUAUAUG [Eternabot solution 45] (Eterna round: R96, puzzle: Exclusion NG 2) | 28.1 nM | 15.4 nM | 13.7 nM |  |  |  |
| CCGUUGUCAGGAUAUCGUGCAUACAACGAAAGUUCUAUGUGCGAGAAGGGACAUGAGGAUCACCCAUGUUACGG [Omei Ex4 A1] (Eterna round: R97, puzzle: Exclusion 4) | 90.3 nM | 41.2 nM |  |  |  |  |
| ACGCAGAGAGGAUAUACAUGAGGAUCACCCAUGUAUAAACGCACUAACUCUCCUCACUGUAGAAGGCUCAUGCA [Larerige] (puzzle: Exclusion 3) |  |  |  |  | 11.3 nM |  |
| UUUUUCAGGCCAGAUCCUCACAUGAGGAUCACCCAUGUGCUCGUCUGUUUUCGCACUAUCACGUUUGUGAUAGUGCU [Level Boss var2-12] (puzzle: Sensor v3, turn-off variant 1) |  |  |  | 207 nM | 33.5 nM | 216 nM |
| GCGGAAAACUUAGGAUAUCAGGGCUGUACAUGAGGAUCACCCAUGUGAUAGCUCUAACACGGUCCUGAGAAGGGAGAGCCCGGA [Biorenen] (Eterna round: R96, puzzle: Exclusion NG 2) | 109 nM | 73 nM | 49.7 nM |  |  |  |

| Sequence | apparent KD of MS2 coat protein (input ligand: FMN 200 uM) | apparent KD of MS2 coat protein (input ligand: none) | apparent KD of MS2 coat protein [1] | apparent KD of MS2 coat protein [2] | apparent KD of MS2 coat protein [3] | apparent KD of MS2 coat protein [4] |
| --- | --- | --- | --- | --- | --- | --- |
| AAGAAACAUGAGGAUCACCCAUGUGAGGAUAUGACUAAGAAAAGAAAAGAAAGAAGACUCAGAAGGCACAAAGG [salish99-ex1_r3_075] (puzzle: Exclusion 1) |  |  |  | 68.9 nM | 54.5 nM | 46.8 nM |
| ACAUGAGGAUCACCCAUGUGAAAACAAUGGCUGACAAAGAGAUAGGAUAUAUGUGCAUAUCAAACAUAGAAGGGUCAUUACUGG [Deportation 87 - Jieux - Exclusion NG 3] (Eterna round: R96, puzzle: Exclusion NG 3) | 42.7 nM | 49.8 nM | 42.5 nM |  |  |  |
| AACCUGAGGCAAAGCUUUAGGUGUACAUGAGGAUCACCCAUGUAGGAUAUGGUAGGCUUUGCUUACCAGAAGGACAUUGGCGUA [Mat - Exclusion NG 3 - Mod of JL - D42] (Eterna round: R96, puzzle: Exclusion NG 3) | 345 nM | 91.7 nM | 70.5 nM |  |  |  |
| UUUUGAAAGUGAGGAUAUGACAUGAGGAUCACCCAUGUAAAGGGAGUUGAAUAUAUAGAAAGAUAUCAGAAGGCACAAAUGUUU [JR_ExcNG2_Sub001] (Eterna round: R96, puzzle: Exclusion NG 2) |  |  | 115 nM |  |  |  |
| GCUGCGCGAGGAUAUGCGGUUCGCGCUGUGGCCCGUGGCGCACAUGAGGAUCACCCAUGUAGAAGGCGUGCGGG [Apr-15 SS2-57] (puzzle: Exclusion 2) |  |  |  |  | 9.52 nM |  |
| GCGCACCUACCAAAAGGUAGGUCCACAUGAGGAUCACCCAUGUAGGAUAUCGAUUGCUUUGCAGUCGAGAAGGACGUGAUGCGC [JL ENG3 3.80 Mod 16] (Eterna round: R96, puzzle: Exclusion NG 3) | 51.6 nM | 32.3 nM | 27.3 nM |  |  |  |
| UGCAGACGAGGAUAUAAACGAUAUAACAUGAGGAUCACCCAUGUACGAUCGAUAGAUCGUUUAGAAGGCGUCUGCU [E5/9-A3] (Eterna round: R97, puzzle: Exclusion 5) | 14.5 nM | 14.1 nM |  |  |  |  |
| GUGGUACAUGAGGAUCACCCAUGUUAGGAUAUCGCGUGAGGUUUUACUUCCACACACACGAGAAGGGACGUCUU (puzzle: Exclusion 1) |  |  |  |  | 41 nM |  |
| AAGGGUGCUUUCAGAACGACAUGAGGAUCACCCAUGUAGACUGAGGAUAUCUACUUCUAAGGACGGGAGAAGGUAGUGUAAUGC [Ex NG3 #67] (Eterna round: R96, puzzle: Exclusion NG 3) | 19.7 nM | 21.5 nM | 15.9 nM |  |  |  |
| UAAUACGAUGUCAGGAUAUGUAAGACACUUGUAACACAGAAGGGACAUGAGGAUCACCCAUGUAAGGGCUCUUC [Rimala] (puzzle: Brourd's mod of Exclusion 4) |  |  |  | 51.4 nM | 20.4 nM | 22.6 nM |
| CUGAGCAGACGGAGAUCCAACAUGAGGAUCACCCAUGUCUCAAAAGCUUUUUGCUUGUCUUACUCUCCUCUGUUCUC [Atenve] (puzzle: Sensor v3, turn-off variant 1) |  |  |  | 13.9 nM | 103 nM | 11.3 nM |
| UAAAUGUCAGGAUAUUGUUAAUUUAGUUGUUUGUAUUAGUUCGAGAAGGGACAUGAGGAUCACCCAUGUUAAAA [Ex4 #52] (Eterna round: R97, puzzle: Exclusion 4) | 37.6 nM | 31 nM |  |  |  |  |
| UAACAUGUAGAAGGAUAUCUGCACGUUUAGUGCAGAGAAGGUCUAACAUGAGGAUCACCCAUGUAGAUCAUUAAUUAAUUAAUU [ENG1/8-B2] (Eterna round: R96, puzzle: Exclusion NG 1) | 15.8 nM | 12.9 nM | 9.45 nM |  |  |  |
| GUCAUCGCAGGAUAUUAGAAUUUUUACAUGAGGAUCACCCAUGUUAAUUGGGUCUAAGUCUAAGAAGGGCGAUGAA [JR_EX5_Sub012] (Eterna round: R97, puzzle: Exclusion 5) | 105 nM | 32.4 nM |  |  |  |  |
| GGUGGGCUAGGAUAUGCUUUGGGAAGGCAUUCCUUCGAUAAACUUGAGGAUCACCCAAGUAGAAGGAGCUUGCC [salish99_ex2_r4_021] (Eterna round: R97, puzzle: Exclusion 2) | 21.3 nM | 13.6 nM |  |  |  |  |
| AGGUGUAGAGGAUAUCCAUCCUCCCACAUGAGGAUCACCCAUGUCCUGGUCACCAAGGACGGAGAAGGCUACACCA [Omei Ex5 D21] (Eterna round: R97, puzzle: Exclusion 5) | 108 nM | 142 nM |  |  |  |  |
| AGCCUGGGUUCGCCCAGGUACAUGAGGAUCACCCAUGUCAUGGGUACUUGUGUUGGUAGGCAGUGUGCUCGUCUUAU [Cac Sensor turnoff v1 sub10] (Eterna round: R97, puzzle: Sensor, turn-off variant 1) | 719 nM | 1050 nM |  |  |  |  |
